Source: article PMC13244463, “Intermolecular β‑sheet Formation Guides the Interaction between Ubiquitin-like Modifier FAT10 and Adapter Protein NUB1L” (Journal of the American Chemical Society, 2026)

Molecular target: T1, Human NUB1L (amino acids 2-615) (human, UniProt Q9Y5A7-1 2-615)
T1 construct: NUB1L, the long isoform of NEDD8-ultimate buster 1, human, amino acids 2-615 (615 residues in the long isoform); Details are in the Supporting Information; also called NEDD8-ultimate buster 1 long isoform; natural abundance NUB1L; source: E. coli BL21-CodonPlus(DE3)-RIPL, LB medium, purified (same steps as for N-FAT10-C0)
T1 sequence (looked up): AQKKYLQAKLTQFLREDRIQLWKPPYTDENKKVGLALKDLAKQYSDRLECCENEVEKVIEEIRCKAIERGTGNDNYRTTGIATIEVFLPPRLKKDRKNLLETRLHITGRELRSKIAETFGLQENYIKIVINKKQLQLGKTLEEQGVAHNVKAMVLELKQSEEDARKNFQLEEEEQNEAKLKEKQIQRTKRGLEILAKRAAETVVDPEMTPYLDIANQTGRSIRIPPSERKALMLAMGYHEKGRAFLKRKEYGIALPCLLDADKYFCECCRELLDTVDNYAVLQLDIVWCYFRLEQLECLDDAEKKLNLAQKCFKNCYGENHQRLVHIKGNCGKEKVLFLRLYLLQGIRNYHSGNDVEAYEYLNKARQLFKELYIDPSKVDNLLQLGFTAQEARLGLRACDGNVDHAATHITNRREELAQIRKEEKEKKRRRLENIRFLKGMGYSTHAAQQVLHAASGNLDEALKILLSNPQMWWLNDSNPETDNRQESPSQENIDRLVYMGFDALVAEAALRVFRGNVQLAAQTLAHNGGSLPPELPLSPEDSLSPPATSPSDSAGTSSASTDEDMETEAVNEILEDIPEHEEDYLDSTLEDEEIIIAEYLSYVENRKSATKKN
Assay: SEC; size-exclusion chromatography (with SDS-PAGE) of N-FAT10-C0 with NUB1L, Figure S1; conditions are in the Supporting Information
Conditions: both partners purified

binding result: binds
B1: Cys-free N-domain of human FAT10 (amino acids 5-86; C7T, C9T) (domain or fragment)
chain: GASTLTVHVRSEEWDLMTFDANPYDSVKKIKEHVRSKTKVPVQDQVLLLGSKILKPRRSLSSYGIDKEKTIHLTLKVVKPSDE
notes: additional glycine residue at the N-terminus that remains from the TEV protease cleavage site; FAT10 (human leukocyte antigen F adjacent transcript 10), human, N-domain, amino acids 5-86, with C7T and C9T; 83 residues together with the extra glycine; Uniformly 13C,15N labelled (M9 medium with U-13C6-D-glucose and 15N-ammonium chloride) for MAS NMR; Detailed protocols are in the Supporting …
